{"source": "paper PMC3968025", "about": "“Metabolic and Target-Site Mechanisms Combine to Confer Strong DDT Resistance in Anopheles gambiae” (PLoS ONE, 2014)", "proteins": {"B1": {"name": "GSTE2 ZAN/U variant (epsilon-class glutathione-S-transferase GSTE2 of Anopheles gambiae, allele ZAN/U 1C) (enzyme, UniProt Q7PVS6 1-221, looked up)", "chain": "MSNLVLYTLHLSPPCRAVELTAKALGLELEQKTINLLTGDHLKPEFVKLNPQHTIPVLDDNGTIITESHAIMIYLVTKYGKDDSLYPKDPVKQARVNSALHFESGVLFARMRFTFERILFFGKSDIPEDRVEYVQKSYELLEDTLVDDFVAGPTMTIADFSCISTISSIMGVVPLEQSKHPRIYAWIDRLKQLPYYEEANGGGGTDLGKFVLAKKEENAKA", "notes": "Cloned from full-length cDNA; the model runs to Ala221; One of GenBank JX840597-JX840599; Crystallised as the complex with glutathione (GSH, 1:1.2 molar ratio); biological dimer; Natural allelic variant; I114T is written against the Kisumu (ancestral) allele; also called Gste2-114T; ZAN/U:GSH; not shown: His6, N-terminal, cleaved; SUMO, N-terminal, cleaved"}}, "target": "the molecule itself", "assay": "crystal structure; ZAN/U:GSH crystals, hanging drops at 22°C, 30% PEG 6000, 0.1 M Bis-Tris pH 6.5, 1 mM β-ME; soaked with DDE (not seen in the maps); 2.3 Å; two biological dimers in the asymmetric unit"}
{"protein": "B1", "values": [{"measurement": "stoichiometry N", "result": 2}]}
